Measurements reported in the DeepSol protein solubility set.

experiment: soluble on expression in E. coli; label from the status in PepcDB or PDB records

Row | Sequence | soluble on expression in E. coli
1 | GSSEDKITVHFINRDGETLTTKGKIGDSLLDVVVQNNLDIDGFGACEGTLACSTCHLIFEQHIFEKLEAITDEENDMLDLAYGLTDRSRLGCQICLTKAMDNMTVRVPDAVSDARESIDMGMNSSKIE | soluble
2 | MGSDKIHHHHHHMEIQNLKFEDRDEFKRKSIAAKVISVLQADIDISPMVIDGSWGTGKTEFCHKLINLMHVSDTHHLIYVDAFKADHADEPLMTVLAEVIKVLPDDDSKQSFMKKALPAVRYGLKTIAKAGVSHLLRQDIADVADDFDKQIQGAADKAIDATVESVLKDHVKADKNLKALQVALADIAAIKPIVLFIDELDRCRPNFAVDMLEIIKHTFDVDGVKFVLITNTQQLKASINHCYGLSVDAQRYLDKFVKFTIALPETVDTNAHRESIAAIEHYKNLVRSSHVLVDMKLYECGSIRTIEQIIIANRLSLREVETVVRHIEIYVTLAQSNNLQSNTIFGYKVLTILAIAIYSIQPEVALSILQKKLDAKDIGNCLGISSLSNNIQGRPDEQELICYMLGYTALHNKEHFTPTEDVDVWKQESAQYFRGAHWRTDDFASICAEAIQTLTMC | not soluble
3 | SNAMQRANREHLEIISLEEISMLVSSDFDLPEVLQHVTAKVATQLKVSVCNIYLREGDEVVLAATHGFDPAFIGKIRIKIGDGITGSVARDGQYISLSRASQDPRYRYFPELQEEKYNSMLSFPIGDKKEVYGVINLNTTSIRSFHEDEIYFVSIIANLILTAIKLRQQVASSRKAAEASA | soluble
4 | GPHMTTIEDEDTKVRKQEIIKVTEQLIEAISNGDFESYTKMCDPGMTAFEPEALGNLVEGLDFHRFYFENLWSRNSKPVHTTILNPHIHLMGDESACIAYIRITQYLDAGGIPRTAQSEETRVWHRRDGKWQIVHFHRSGAPSVLPH | soluble
5 | MGSDKIHHHHHHMTEITTLSQFLTTAKTQFQVYDLGRRVQHIDMLAFHQIESLATPYPYPIQGHAQFAIVFWDASQQHFIWFLKLALDEQGLLSPAPRSQFIEMVLSALGQDPTQPLSNEQQEHLANNPFSFTPSQEKLAVFNALVRKQLGQHASVQYEFAMQYLSGQIAPSQWQHIGIQGIADVCVRANELDHEAKLLTSFDSAAIEVQIALCQCLEHVQISPLLANKILNKLTAAEPEHKAYFLRALASNSELSQKALAHLHQGSNLDANTLISIAGRNWTVLKQELSRSIYLEALALQPQTFFNQIFADIVAIPSLRNLLLGELRNPNRSIQLSQAIGGLFKAASK | not soluble
6 | MSLEIHFEKVTSDNRKAVENLQVFAEQQAFIESMAENLKESDQFPEWESAGIYDGNQLIGYAMYGRWQDGRVWLDRFLIDQRFQGQGYGKAACRLLMLKLIEKYQTNKLYLSVYDTNSSAIRLYQQLGFVFNGELDTNGERVMEWTHQNKEGGSHHHHHH | soluble
7 | QAFVSAQTSTIPKTAFTAHDFVDYTLPQEQKGKEQKEQQWMKNSQTKDTDVHPYADFAVLEILLFPDSSTDRKIFNHFIQPAIRAYKQLGDSLNIFANQTLDQPKHNRYYLLGYPFLRNKAASLFLNQTEQRKEHMDKTTQILHEKPFVVLTDPAKPTLIRNKGANFTGNTWTSNYDL | not soluble
8 | MMTADAGICRPFKTKPARTIFGRFPARTVCLCASAIWTAAKSRCGWTAGVPSSLPTLPHPANAIPPNTVCSETQPSGTRKAAKPFSALPMPTAIRSKLPAAPVKRGSLFEPPSRFFGRFFVSDGRFFVSDLFCSSASGRVRAA | not soluble
9 | MSETLIIRFNVGGTPMATLKTTFPVDSIFHKWFVSRTKASPFTSDRDGAYFVDRDPFSFGVVLNYFRLRKAGQLWEACLPKDPDRLAMLTQEADFFLLPQLRDQAICMLQLCSNKNDSNYINEMLAKSTSCPQGFDKKEEEDEEDF | not soluble
10 | APFTLLYDLLHPYGFNRDQIREVATSLDNPPGASFFSSSHRLLRERDRLTVLPLSPKMEVPELFGLKIGDSFLDLPDGKQLSWQRGTPADLDLEGLRLPNTKLLLPLAFVESLQEELGVRRPQRGDHIHPYGMKGCKTVSRFFIDRHVPRSRREEAWLLCQGTEVVWIMGYAADRRFAIDELSDTEEYLLFSFGL | not soluble
11 | MGSDKIHHHHHHMSRPKILYFITEDWYFCSHRLPLALAARDAGYDVAVVTNVNEHADVIRRAGIRLIPFDLSRKGMNPASELAVLARLIALYRKEKPDIVHQVAMKPVLYGSLAARLSGVSRVVNALAGLGYIFTSDQPKARFLRPVIGSAFRGLLNSRRSRLILQNQDDRAKFIRKRFISEKRIRLIRGSGVDTAVFVPTPEPPGVPVVILPSRMLWDKGVREFVDAAGQLKKRGISARFVLVGDADPHNPSAIHTEQLTAWHAEGAVEWWGRRDDMPAVFEQSHIVCLPSYREGLPKVLLEAASCGRPIVTTDTPGCRDVVRQGENGLLVPVRGTAELADALQLLIEQPALRKKMGCKGREIVVSEFALEKVVAKTMNIYRELLKP | not soluble
12 | GSHMSGEDAEVRAVSEDVSNGSSGSPSPGDTLPWNLGKTQRSRRSGGGAGSNGSVLDPAERAVIRIADERDRVQKKTFTKWVNKHLIKAQRHISDLYEDLRDGHNLISLLEVLSGDSLPREKGRMRFHKLQNVQIALDYLRHRQVKLVNIRNDDIADGNPKLTLGLIWTIILHFQISDIQVSGQSEDMTAKEKLLLWSQRMVEGYQGLRCDNFTSSWRDGRLFNAIIHRHKPLLIDMNKVYRQTNLENLDQAFSVAERDLGVTRLLDPEDVDVPQPDEKSIITYVSSLYDAMPRVP | soluble
13 | GMARKRLIIEMGMGIDQHGQEPTIAASRAVRNAIAHNALPGVWEVAGLSHPNEMIIEVQVAVPYPEQVREEEVLAVLPFGRKTLTVESGGMIVQGRAIPELNDKNDEMLIAIAAVTVLIENE | soluble
14 | MSIEGGNYRRIRNFVDRECAKECIEDFSCFGYEWNSEEKICYLKSRSTSGKLIAKPNTMVGFCQDDEDEVRYRLQDHVIVGPIVMEADDVPDGEECKENCRKVGALYYSWRPNSDNQRSNVVPVEEEEDDEEQEVLGHCECISTMNELRLEYDAFSGFIPIPKHKHRRSILLRPFEI | not soluble
15 | MSCVHYKFSSKLNYDTVTFDGLHISLCDLKKQIMGREKLKAADSDLQITNAQTKEEYTDDNALIPKNSSVIVRRIPIGGVKSTSKTYVISRTEPVMGTTKAVCKNTITLFLHNCFYLYNVSVT | not soluble
16 | MQRLFRQKMIINSLGTSPTSVDTLVELTGASPATIRRDLTDLEGHGQLRKVHGGAVAVNLRGTPMPYSLRSAENAESKTAIAQLVSRLVTDDMSVIIDNGSTMVAVAQALQERPITALCLSLRAALPLGEGGVATVSTPDGTLMPESLRYAAASCLRALGEFRADVAIVGTCSASPAMGLTVTTHQDAQVKRAILASSARVVLAATGDKLSRTSSFRFGDIEDIDDLVTTRDAPQVTLDAFRVAGSRVYVADLEHHHHHH | soluble
17 | MSTTAYQPIAECGATTQSEAAAYQKRWLVANDAGQWLNRDLCPRLAEVSVELRMGYLVLKAPGMLRLDIPLDVIEDDDSVRYQMLVGEQTVDVVDEGELAAAWISNHAGVPCRILKVHPDMAEVRWPSLEHHHHHH | soluble
18 | GSHEHPEFLKAGKEPGLQIWRVEKFDLVPVPTNLYGDFFTGDAYVILKTVQLRNGNLQYDLHYWLGNECSQDESGAAAIFTVQLDDYLNGRAVQHREVQGFESATFLGYFKSGLKYKKGGVASGFKHVETQEKNPLPSKETIEQEKQ | soluble
19 | MEKLLSELAELGARQKFNGEIDFGAEIASDSLLEVMKIVGSEELSQQVLEGFLEQAPTIHQVLLGMTFASYLQSTTSGEASPGAQELSEPLKKARRSIRLLLNLTQRSPDFASRISSESVELLETLLATGSFDVECLIILLKTSQATWLEFQKSPRYSALLQRVLSKYSPDFSENSTILAYFSVLFEMDYGFLSMCYAEMDAPTFCEILDVLRVILTRKTLKIHSNNLLFVLNLLELVVVDYEAFWRARERKEPQSVEQRRVATVEILNLEVEIVGEMCSNTEMTSYLNEKATAMNSVVDVLDAVSIFRNKISIFLDFFQILHAEALFADFRAEQPSDWPKIESEHPRFEVLKRKIEEERRYEETQRRYPDRPRQPLPPKIQRVESSESLSLLANTIFSKYRSIDDVIGVPRVGELKLNCLKAIANLANLSDSNKLATLQNGRQGLISVLQCTTRRPEYFLESFTMRNQSIFCVRQLTDGCQENKEVVFNLQQPNQPIIDRKRLLEELGVHVDN | not soluble
20 | SLASELHQTQVDLDGLLEVLGRNLYSTPAVAIRELIQNAHDACVRSRLETGRDGDFSIRIQADSHRNQIVITDNGSGLTYEEVLKYLATIGSGYTRVLRDSSHNEDMVGYFGLGFLSAYVVAEKVEVWTTSYQTPEQTWYFSTAGGKKFAISATAPAQVGTTVKLHLREEFYHLAESDLLQGLIERYCCLLRVPIFLNNDDVQVNNLVAPWRLDAATSELQRKKRRLEFAAIFEGAFEPLCAIPIPENNPWSLKGLLWVQDRGGYATSDYRNISVFVRSMFITGECRELLPLWAGFAGGVVESVALSPTASREDIQKNERFYEIRDFLAETLIEGLRTIAANESSVWRRILSRHNQTLLGAALSDDRLFEVMQNDLKIPTTIGDVTLPAYLKQSGGVIYIRNEDKNSQEELLFRAQMKPLVSGYLYAASGFCQKYAHWNHLKAHILGSGDGETKLFTEETVDKAIHDKLAALLLRKNEALSCARFEPAHVPLLVIHDQDVALKKRIERDEADKRIGSAALSLARLHTQAISAEIERRLYVNLNSPLIAAMIDGTQEAAGHLAVAVRAYMESLTHQVDDSDSNFSDELKRFSDALLAITKGEEG | soluble
21 | LVGSRREIAARNLELCFPEKSPAERERLLKENFASSGIAFFEMAMSWWWPKARLARLAHIEGLEHLREAQAQGEGVILMALHFTTLEIGAALLGQVHTIDGMYREHDNPVFDYVQRRGRERHNLDATAIEREDVRSMLKVLRGGRAIWYAPDQDYGAKQSLFVPLFGIPAATVTATTKFARLGRARVLPFTQSRLADGSGYRLTIHPPLEDFPGESEEADCLRINQWVERCVRQQPEQYLWAHRRFKTRPPGEAK | not soluble
22 | MIGILIPVHNEEQLLDLCLETIKQAAAHPALKGEQVEVLVVLDSCTDRSAEIARAHGVMILEVTARNVGQARAEGAAFLLDRGARWLACTDGDSSVASDWLAEQLALDADAVCGTVTLGDWNNDISAPARAAYLKHYQQRDGHRHIHGANLGVSSIAYISAGGFPSLTCHEDVHLVRQLELIGARIAWSCRPRVTTSTRLNSKARGGFGDYLSSLNALEHHHHHH | not soluble
23 | MSLALLNVDKLSVHFGDESAPFRAVDRISYSVKQGEVVGIVGESGSGKSVSSLAIMGLIDYPGRVMAEKLEFNGQDLQRISEKERRNLVGAEVAMIFQDPMTSLNPCYTVGFQIMEAIKVHQGGNKSTRRQRAIDLLNQVGIPDPASRLDVYPHQLSGGMSQRVMIAMAIACRPKLLIADEPTTALDVTIQAQIIELLLELQQKENMALVLITHDLALVAEAAHKIIVMYAGQVVETGDAHAIFHAPRHPYTQALLRALPEFAQEGHHHHHH | not soluble
24 | MAGAGHKEDKSVTKKLIKKESKSDITIYFKQREESEDNNANPINISRSSEKDRVIMLVNGSNGSKKNLASELNVRRSVAQTGAGGVTQPKPLLNDINTKSHAFIQSRLEKMRKGL | not soluble
25 | MDELNRGHAGRTVIRNIEAACEMDPEKRVVISKTDQGSEANMPGHWTGCARPTRDPFVPFVAGRGESVAVRYNSRFGRRFDDQSVNGQPDPSLAYVFLGHELIHASRTLQGTQYRVSRGRPDVDEDSGAAEEELRTVGIGQYEDEYPSENAIRREHGLAPRTSYSGNTGTNLREPPERNSQYTEARLRSLNARRWSDM | not soluble
26 | MEDEDVPVCWICNEELGNERFRACGCTGELENVHRSCLSTWLTISRNTACQICGVVYNTR | soluble
